# Reference: patent US20210024620A1
# Tests used:
# rat FcRn (rat) [1] = biological target: rat FcRn (rat) (UniProt P13599); experiment: Octet BLI, pH 6.0
# rat FcRn (rat) [2] = biological target: rat FcRn (rat) (UniProt P13599); experiment: Biacore, pH 6.0
# rat FcRn (rat) [3] = biological target: rat FcRn (rat) (UniProt P13599); experiment: Biacore, pH 6.0, apparent KD
# rat FcRn (rat) [4] = biological target: rat FcRn (rat) (UniProt P13599); experiment: Biacore SPR, pH 6.0
# [5] = biological target: Human CD16a (FcγRIIIa V158) with C-terminal HPC4 tag (human) (UniProt P08637); experiment: Biacore, FcγRIIIa V158 captured, steady-state fit, apparent KD
# Human CD16a (FcγRIIIa V158) with C-terminal HPC4 tag (human), sequence (P08637 17-208 F176V): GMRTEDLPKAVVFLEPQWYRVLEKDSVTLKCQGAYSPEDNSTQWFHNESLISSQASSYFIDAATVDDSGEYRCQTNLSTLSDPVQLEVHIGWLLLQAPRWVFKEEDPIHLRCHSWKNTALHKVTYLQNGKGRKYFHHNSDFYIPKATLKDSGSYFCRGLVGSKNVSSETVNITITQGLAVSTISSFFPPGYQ
# [6] = biological target: FcRn immobilised on the FcRn affinity column (biotinylated cynoFcRn in one experiment, biotinylated hFcRn in another); experiment: FcRn affinity chromatography, linear pH gradient; species of the immobilised FcRn not given
# rat FcRn (rat) [7] = biological target: rat FcRn (rat) (UniProt P13599); experiment: Biacore, pH 7.4, steady state response
# rat FcRn (rat) [8] = biological target: rat FcRn (rat) (UniProt P13599); experiment: Biacore SPR, pH 7.4, 1000 nM antibody
# [9] = biological target: biotinylated human FcRn (p51 subunit residues 24-297 with C-terminal Avi-tag; beta2-microglobulin residues 21-119) (human) (UniProt P55899); experiment: Biacore; affinity at pH 6.0 (M^-1) over steady state RU at pH 7.4
# [10] = biological target: biotinylated human FcRn (human) (UniProt P55899); experiment: Biacore, pH 6.0
# [11] = biological target: biotinylated human FcRn (human) (UniProt P55899); experiment: Biacore, pH 6.0, apparent KD
# [12] = biological target: biotinylated human FcRn (human) (UniProt P55899); experiment: Biacore SPR, pH 7.4
# [13] = biological target: biotinylated human FcRn (p51 subunit residues 24-297 with C-terminal Avi-tag; beta2-microglobulin residues 21-119) (human) (UniProt P55899); experiment: Biacore SPR, pH 6.0
# [14] = biological target: biotinylated human FcRn (human) (UniProt P55899); experiment: Biacore SPR, pH 6.0
# [15] = biological target: biotinylated human FcRn (p51 subunit residues 24-297 with C-terminal Avi-tag; beta2-microglobulin residues 21-119) (human) (UniProt P55899); experiment: Biacore; inverse ratio (RU at pH 7.4 over affinity at pH 6.0)
# [16] = biological target: biotinylated human FcRn (human) (UniProt P55899); experiment: Biacore, pH 7.4, steady state response
# [17] = biological target: biotinylated human FcRn (p51 subunit residues 24-297 with C-terminal Avi-tag; beta2-microglobulin residues 21-119) (human) (UniProt P55899); experiment: Biacore SPR, pH 7.4, steady state
# [18] = biological target: biotinylated human FcRn (human) (UniProt P55899); experiment: Biacore SPR, pH 7.4, 1000 nM antibody
# [19] = biological target: Human CD16a (FcγRIIIa V158) with C-terminal HPC4 tag (human) (UniProt P08637); experiment: Biacore SPR, FcγRIIIa-V158 captured, pH 7.4
# [20] = biological target: biotinylated human FcRn (human) (UniProt P55899); experiment: Biacore SPR, pH 6.0; remark: listed apart in the source
# [21] = biological target: biotinylated human FcRn (human) (UniProt P55899); experiment: Biacore SPR, pH 7.4; remark: listed apart in the source
# rat FcRn (rat) [22] = biological target: rat FcRn (rat) (UniProt P13599); experiment: Biacore SPR, pH 7.4
# rat FcRn (rat) [23] = biological target: rat FcRn (rat) (UniProt P13599); experiment: Biacore SPR, pH 6.0; remark: listed apart in the source
# [24] = biological target: Human CD16a (FcγRIIIa V158) with C-terminal HPC4 tag (human) (UniProt P08637); experiment: Biacore SPR, FcγRIIIa
# rat FcRn (rat) [25] = biological target: rat FcRn (rat) (UniProt P13599); experiment: Octet BLI screen, pH 6.0
# [26] = biological target: Human CD16a (FcγRIIIa V158) with C-terminal HPC4 tag (human) (UniProt P08637); experiment: Biacore, FcγRIIIa V158 captured, relative to WT of the same backbone
# [27] = biological target: biotinylated cynomolgus FcRn (cynomolgus) (UniProt Q8SPV9); experiment: Biacore, pH 7.4, steady state response
# biotinylated cynomolgus FcRn (cynomolgus), sequence (Q8SPV9 24-297 limits assumed, chain 1 of 2): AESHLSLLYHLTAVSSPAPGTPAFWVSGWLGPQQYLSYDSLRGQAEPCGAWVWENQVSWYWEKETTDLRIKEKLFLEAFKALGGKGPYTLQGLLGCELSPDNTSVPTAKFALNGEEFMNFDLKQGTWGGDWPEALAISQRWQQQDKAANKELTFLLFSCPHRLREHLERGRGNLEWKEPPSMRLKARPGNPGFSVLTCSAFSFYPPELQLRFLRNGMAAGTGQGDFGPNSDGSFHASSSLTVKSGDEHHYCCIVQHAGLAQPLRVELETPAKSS
# biotinylated cynomolgus FcRn (cynomolgus), sequence (Q8SPW0 21-119 limits assumed, chain 2 of 2, further chain): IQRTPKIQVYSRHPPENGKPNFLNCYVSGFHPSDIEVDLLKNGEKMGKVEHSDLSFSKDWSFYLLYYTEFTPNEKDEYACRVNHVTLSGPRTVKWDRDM
# mouse FcRn (mouse) = mouse FcRn (mouse) (UniProt Q61559); experiment: Biacore, pH 7.4, steady state response
# rat FcRn (rat), sequence (P13599 23-298 limits assumed, chain 1 of 2): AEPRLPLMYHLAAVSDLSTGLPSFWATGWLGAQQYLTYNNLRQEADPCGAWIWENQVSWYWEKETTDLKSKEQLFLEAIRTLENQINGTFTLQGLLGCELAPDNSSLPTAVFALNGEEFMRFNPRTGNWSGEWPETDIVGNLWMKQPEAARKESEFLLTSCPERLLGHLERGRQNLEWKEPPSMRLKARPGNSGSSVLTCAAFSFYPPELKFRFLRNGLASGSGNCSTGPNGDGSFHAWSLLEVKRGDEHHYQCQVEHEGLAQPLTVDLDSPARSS
# rat FcRn (rat), sequence (P07151 21-119 limits assumed, chain 2 of 2, further chain): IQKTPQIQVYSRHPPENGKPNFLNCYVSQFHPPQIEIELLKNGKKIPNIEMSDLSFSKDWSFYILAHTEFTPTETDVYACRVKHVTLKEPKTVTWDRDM
Substance,koff (rat FcRn (rat) [1]),koff (rat FcRn (rat) [2]),kon (rat FcRn (rat) [2]),Kd (rat FcRn (rat) [3]),Kd (rat FcRn (rat) [4]),koff (rat FcRn (rat) [4]),kon (rat FcRn (rat) [4]),Kd [5],FcRn affinity column elution pH [6],Steady State RU (rat FcRn (rat) [7]),Steady State RU (rat FcRn (rat) [8]),Ratio (pH 6.0/pH 7.4) [9],koff [10],kon [10],Kd [11],koff [14],kon [14],Steady State RU [16],"Steady State Binding, pH 7.4 (RU) [17]",Steady State RU (rat FcRn (rat) [22]),other results
mAb1 AAA (T307A/E380A/N434A) (antibody),0.00377 s⁻¹,0.0117 s⁻¹,157000 M⁻¹ s⁻¹,77 nM,77 nM,0.0117 s⁻¹,157000 M⁻¹ s⁻¹,450 nM,7.94 pH,23.6 RU,23.6 RU,,,,,,,,,,
mAb1 MDQN (T256D/T307Q) (antibody),,0.0013 s⁻¹,13000 M⁻¹ s⁻¹,9.5 nM,9.54 nM,0.00127 s⁻¹,133000 M⁻¹ s⁻¹,600 nM,7.92 pH,39.1 RU,,403000,0.087 s⁻¹,380000 M⁻¹ s⁻¹,232 nM,0.0872 s⁻¹,376000 M⁻¹ s⁻¹,10.7 RU,10.7 RU,39.1 RU,Ka [13]: 4.31e+06 M⁻¹; Kd [14]: 232 nM; FcγRIIIa V158 affinity fold change relative to WT [19]: 0.73 fold; koff [20]: 0.087 s⁻¹; kon [20]: 380000 M⁻¹ s⁻¹; Kd (rat FcRn (rat) [23]): 9.5 nM; Steady State RU [21]: 10.7 RU
mAb1 N434Y (antibody),0.00133 s⁻¹,0.0035 s⁻¹,145000 M⁻¹ s⁻¹,23 nM,23 nM,0.00346 s⁻¹,145000 M⁻¹ s⁻¹,,8.46 pH,,47 RU,,,,,,,,,66 RU,FcγRIIIa V158 affinity fold change relative to WT [19]: 1.41 fold; fold slower off-rate vs WT (rat FcRn (rat) [25]): > 2 fold; enhancement of FcγRIIIa binding vs WT [24]: 16 to 40%
mAb1 T307E (antibody),0.00329 s⁻¹,0.006 s⁻¹,56000 M⁻¹ s⁻¹,141 nM,141 nM,0.00603 s⁻¹,55500 M⁻¹ s⁻¹,,7.58 pH,,21.5 RU,,0.3 s⁻¹,44000 M⁻¹ s⁻¹,8130 nM,0.298 s⁻¹,43700 M⁻¹ s⁻¹,,,,Kd [14]: 8130 nM; Steady State RU [18]: 5.7 RU
mAb1 YDTN (M252Y/T256D) (antibody),,,,5.9 nM,5.86 nM,,,1060 nM,8.29 pH,56 RU,,,,,,,,9.7 RU,9.7 RU,56 RU,Kd (rat FcRn (rat) [23]): 5.9 nM; Steady State RU [21]: 9.7 RU
mAb1 YTE (M252Y/S254T/T256E) (antibody),0.00066 s⁻¹,0.0012 s⁻¹,65000 M⁻¹ s⁻¹,18 nM,18 nM,0.00121 s⁻¹,65200 M⁻¹ s⁻¹,1040 nM,8.14 pH,53.9 RU,53.9 RU,221000,0.05 s⁻¹,143000 M⁻¹ s⁻¹,342 nM,0.045 s⁻¹,143000 M⁻¹ s⁻¹,13.2 RU,13.2 RU,53.9 RU,Steady State RU [12]: 13.1 RU; Ka [13]: 2.92e+06 M⁻¹; FcγRIIIa V158 affinity fold change relative to WT [19]: 0.52 fold; Kd [20]: 342 nM; koff [20]: 0.047 s⁻¹; kon [20]: 140000 M⁻¹ s⁻¹; Steady State RU [21]: 13.2 RU; reduction in binding response vs wildtype [24]: 50%; Steady State RU [18]: 13.2 RU
mAb2 LS (M428L/N434S) (antibody),,,,,,,,,,,,,,,,,,44 RU,,,FcγRIIIa V158 Affinity Fold Change (fold relative to WT) [26]: 1.23; Steady State RU [27]: 38 RU; Steady State RU (mouse FcRn (mouse)): 285 RU

# Further lines, with some results ahead:
koff (rat FcRn (rat) [1]),koff (rat FcRn (rat) [2]),kon (rat FcRn (rat) [2]),Kd (rat FcRn (rat) [3]),Kd (rat FcRn (rat) [4]),koff (rat FcRn (rat) [4]),kon (rat FcRn (rat) [4]),Kd [5],FcRn affinity column elution pH [6],Steady State RU (rat FcRn (rat) [7]),Steady State RU (rat FcRn (rat) [8]),Ratio (pH 6.0/pH 7.4) [9],koff [10],kon [10],Kd [11],koff [14],kon [14],Steady State RU [16],"Steady State Binding, pH 7.4 (RU) [17]",Steady State RU (rat FcRn (rat) [22]),Substance,other results
,,,,,,,,,,,40400,0.14 s⁻¹,84000 M⁻¹ s⁻¹,1780 nM,0.144 s⁻¹,83700 M⁻¹ s⁻¹,13.9 RU,13.9 RU,,mAb1 AAA (T307A/E380A/N434A) (antibody; other documents disagree on this pair),Steady State RU [12]: 13.1 RU; Ka [13]: 562000 M⁻¹; Kd [14]: 1780 nM; Ratio (pH 6.0/pH 7.4) [15]: 2.47e-05; Steady State RU [18]: 13.9 RU
0.00338 s⁻¹,0.0066 s⁻¹,91000 M⁻¹ s⁻¹,74 nM,74 nM,0.00658 s⁻¹,90800 M⁻¹ s⁻¹,369 nM,8.29 pH,24.8 RU,24.8 RU,201000,0.05 s⁻¹,193000 M⁻¹ s⁻¹,272 nM,0.052 s⁻¹,193000 M⁻¹ s⁻¹,18.3 RU,18.3 RU,24.8 RU,mAb1 LS (M428L/N434S) (antibody),Steady State RU [12]: 18.5 RU; Ka [13]: 3.68e+06 M⁻¹; FcγRIIIa V158 affinity fold change relative to WT [19]: 1.04 fold; Ratio (pH 6.0/pH 7.4) [15]: 4.97e-06; Kd [20]: 272 nM; koff [20]: 0.05 s⁻¹; kon [20]: 190000 M⁻¹ s⁻¹; Steady State RU [21]: 18.3 RU; Steady State RU [18]: 18.3 RU
,0.0013 s⁻¹,16000 M⁻¹ s⁻¹,8.2 nM,8.24 nM,0.00129 s⁻¹,157000 M⁻¹ s⁻¹,512 nM,7.92 pH,42.1 RU,,485000,0.089 s⁻¹,530000 M⁻¹ s⁻¹,169 nM,0.0892 s⁻¹,529000 M⁻¹ s⁻¹,12.2 RU,12.2 RU,42.1 RU,mAb1 MDWN (T256D/T307W) (antibody),Ka [13]: 5.92e+06 M⁻¹; Kd [14]: 169 nM; FcγRIIIa V158 affinity fold change relative to WT [19]: 0.89 fold; Ratio (pH 7.4/pH 6.0) [15]: 2.06e-06; koff [20]: 0.089 s⁻¹; kon [20]: 530000 M⁻¹ s⁻¹; Kd (rat FcRn (rat) [23]): 8.2 nM; Steady State RU [21]: 12.2 RU
,,,26 nM,26 nM,,,,,,54.9 RU,,,,,,,,,61.5 RU,mAb1 N434F (antibody),enhancement of FcγRIIIa binding vs WT [24]: 16 to 40%
,,,,,,,,,,,,,,,,,14 RU,,,mAb2 DQ (T256D/T307Q) (antibody),FcγRIIIa V158 Affinity Fold Change (fold relative to WT) [26]: 1.05; Steady State RU [27]: 11 RU; Steady State RU (mouse FcRn (mouse)): 248 RU
,,,,,,,,,,,,,,,,,18 RU,,,mAb2 DW (T256D/T307W) (antibody),FcγRIIIa V158 Affinity Fold Change (fold relative to WT) [26]: 1.15; Steady State RU [27]: 15 RU; Steady State RU (mouse FcRn (mouse)): 257 RU
,,,,,,,,,,,,,,,,,27 RU,,,mAb2 YD (M252Y/T256D) (antibody),FcγRIIIa V158 Affinity Fold Change (fold relative to WT) [26]: 0.58; Steady State RU [27]: 22 RU; Steady State RU (mouse FcRn (mouse)): 394 RU
